Results: US20250326840A1

Legend:
[1] = biological target: human PD-L1 on HCC827 cells (human) (UniProt Q9NZQ7); assay: FACS on HCC827 cells
[2] = biological target: PD-L1-his (QPP09) (human) (UniProt Q9NZQ7); assay: ELISA, PD-L1 captured by coated anti-HIS antibody
Sequence of PD-L1-his (QPP09) (human) (Q9NZQ7 19-239 limits assumed): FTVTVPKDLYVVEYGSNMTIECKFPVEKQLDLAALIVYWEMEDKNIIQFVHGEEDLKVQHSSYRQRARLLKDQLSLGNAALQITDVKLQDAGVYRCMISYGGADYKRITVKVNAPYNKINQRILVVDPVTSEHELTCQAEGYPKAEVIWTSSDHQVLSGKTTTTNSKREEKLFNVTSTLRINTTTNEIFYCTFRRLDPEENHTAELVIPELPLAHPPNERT

Sequence of human PD-L1 on HCC827 cells (human) (Q9NZQ7 19-290): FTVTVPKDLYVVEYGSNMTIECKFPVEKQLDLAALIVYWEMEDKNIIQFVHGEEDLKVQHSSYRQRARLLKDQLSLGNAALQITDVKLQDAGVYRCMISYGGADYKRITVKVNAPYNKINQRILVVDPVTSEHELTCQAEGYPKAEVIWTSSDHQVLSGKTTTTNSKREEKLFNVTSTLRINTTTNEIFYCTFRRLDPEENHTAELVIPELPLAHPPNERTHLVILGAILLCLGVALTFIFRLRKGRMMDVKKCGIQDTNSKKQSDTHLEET

EC50 [1]: 0.109 nM | EC50 [2]: 0.0919 nM
Substance: Tecentriq (antibody)
